Assay results taken from PMC10653854 (mBio, 2023).
“And” between values parts separate entries of the source, which are not always exact repeats. Equal values may be shown once.

How the values were obtained:
Details in all cases: both partners purified
[1] = target: T1, yellow fever virus (YFV) strain Asibi soluble E ectodomain (sE) (yellow fever virus, strain Asibi); experiment: SPR; pH 6; pr injected over immobilized sE; Biacore T200, 25°C
[2] = target: T1, yellow fever virus (YFV) strain Asibi …; experiment: SPR; pH 8; pr injected over immobilized sE; Biacore T200, 25°C
[3] = target: T1, yellow fever virus (YFV) strain Asibi …; experiment: ITC

B1: recombinant purified yellow fever virus (YFV) pr protein (natural protein)
chain: not shown
For B1, which Kd [1] is on record?
The Kd was 6.2 nM.

What about the koff [1] of the same binder?
The koff was 0.00236 s⁻¹.

What about the kon [1] of the same binder?
The kon was 380000 M⁻¹ s⁻¹.

And the Kd [2]?
Its Kd is 19.7 nM.

What about the koff [2] of the same binder?
The koff was 0.00134 s⁻¹.

And the kon [2]?
The kon was 70000 M⁻¹ s⁻¹.

What about the dH [3] of the same binder?
Its dH is -16.6 kcal/mol and -16.3 kcal/mol.

What about the “stoichiometry N” value [3] of the same binder?
Its value is 0.9.
